Experimental findings from IntAct's records for PubMed 34591612 are described below.

Chain of Neurabin-2 (Homo sapiens), Q96SB3 F451A (Q96SB3 whole entry F451A): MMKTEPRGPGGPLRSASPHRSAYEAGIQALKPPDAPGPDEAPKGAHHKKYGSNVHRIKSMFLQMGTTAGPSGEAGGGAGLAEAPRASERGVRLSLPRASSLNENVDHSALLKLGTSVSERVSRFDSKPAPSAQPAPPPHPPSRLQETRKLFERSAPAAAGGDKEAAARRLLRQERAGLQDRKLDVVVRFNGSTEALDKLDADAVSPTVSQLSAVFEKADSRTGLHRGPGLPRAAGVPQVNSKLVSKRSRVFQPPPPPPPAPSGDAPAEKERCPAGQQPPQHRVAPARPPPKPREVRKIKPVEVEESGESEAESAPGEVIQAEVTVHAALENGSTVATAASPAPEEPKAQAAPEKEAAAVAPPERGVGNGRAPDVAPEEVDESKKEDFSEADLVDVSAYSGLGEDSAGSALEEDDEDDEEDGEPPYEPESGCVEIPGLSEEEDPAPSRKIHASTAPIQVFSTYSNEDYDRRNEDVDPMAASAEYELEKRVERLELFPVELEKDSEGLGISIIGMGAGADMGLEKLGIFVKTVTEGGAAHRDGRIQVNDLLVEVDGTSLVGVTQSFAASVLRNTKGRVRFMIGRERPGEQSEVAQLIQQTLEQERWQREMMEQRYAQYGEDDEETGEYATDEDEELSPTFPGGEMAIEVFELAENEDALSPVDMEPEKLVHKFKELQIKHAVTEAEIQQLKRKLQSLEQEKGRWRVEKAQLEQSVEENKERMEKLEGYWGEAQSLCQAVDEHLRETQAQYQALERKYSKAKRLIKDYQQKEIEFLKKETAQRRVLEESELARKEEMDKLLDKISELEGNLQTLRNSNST

For this experiment, the target named is brca1_human BRCA1 (UniProt P38398).
Chain of brca1_human BRCA1 (P38398 whole entry, looked up): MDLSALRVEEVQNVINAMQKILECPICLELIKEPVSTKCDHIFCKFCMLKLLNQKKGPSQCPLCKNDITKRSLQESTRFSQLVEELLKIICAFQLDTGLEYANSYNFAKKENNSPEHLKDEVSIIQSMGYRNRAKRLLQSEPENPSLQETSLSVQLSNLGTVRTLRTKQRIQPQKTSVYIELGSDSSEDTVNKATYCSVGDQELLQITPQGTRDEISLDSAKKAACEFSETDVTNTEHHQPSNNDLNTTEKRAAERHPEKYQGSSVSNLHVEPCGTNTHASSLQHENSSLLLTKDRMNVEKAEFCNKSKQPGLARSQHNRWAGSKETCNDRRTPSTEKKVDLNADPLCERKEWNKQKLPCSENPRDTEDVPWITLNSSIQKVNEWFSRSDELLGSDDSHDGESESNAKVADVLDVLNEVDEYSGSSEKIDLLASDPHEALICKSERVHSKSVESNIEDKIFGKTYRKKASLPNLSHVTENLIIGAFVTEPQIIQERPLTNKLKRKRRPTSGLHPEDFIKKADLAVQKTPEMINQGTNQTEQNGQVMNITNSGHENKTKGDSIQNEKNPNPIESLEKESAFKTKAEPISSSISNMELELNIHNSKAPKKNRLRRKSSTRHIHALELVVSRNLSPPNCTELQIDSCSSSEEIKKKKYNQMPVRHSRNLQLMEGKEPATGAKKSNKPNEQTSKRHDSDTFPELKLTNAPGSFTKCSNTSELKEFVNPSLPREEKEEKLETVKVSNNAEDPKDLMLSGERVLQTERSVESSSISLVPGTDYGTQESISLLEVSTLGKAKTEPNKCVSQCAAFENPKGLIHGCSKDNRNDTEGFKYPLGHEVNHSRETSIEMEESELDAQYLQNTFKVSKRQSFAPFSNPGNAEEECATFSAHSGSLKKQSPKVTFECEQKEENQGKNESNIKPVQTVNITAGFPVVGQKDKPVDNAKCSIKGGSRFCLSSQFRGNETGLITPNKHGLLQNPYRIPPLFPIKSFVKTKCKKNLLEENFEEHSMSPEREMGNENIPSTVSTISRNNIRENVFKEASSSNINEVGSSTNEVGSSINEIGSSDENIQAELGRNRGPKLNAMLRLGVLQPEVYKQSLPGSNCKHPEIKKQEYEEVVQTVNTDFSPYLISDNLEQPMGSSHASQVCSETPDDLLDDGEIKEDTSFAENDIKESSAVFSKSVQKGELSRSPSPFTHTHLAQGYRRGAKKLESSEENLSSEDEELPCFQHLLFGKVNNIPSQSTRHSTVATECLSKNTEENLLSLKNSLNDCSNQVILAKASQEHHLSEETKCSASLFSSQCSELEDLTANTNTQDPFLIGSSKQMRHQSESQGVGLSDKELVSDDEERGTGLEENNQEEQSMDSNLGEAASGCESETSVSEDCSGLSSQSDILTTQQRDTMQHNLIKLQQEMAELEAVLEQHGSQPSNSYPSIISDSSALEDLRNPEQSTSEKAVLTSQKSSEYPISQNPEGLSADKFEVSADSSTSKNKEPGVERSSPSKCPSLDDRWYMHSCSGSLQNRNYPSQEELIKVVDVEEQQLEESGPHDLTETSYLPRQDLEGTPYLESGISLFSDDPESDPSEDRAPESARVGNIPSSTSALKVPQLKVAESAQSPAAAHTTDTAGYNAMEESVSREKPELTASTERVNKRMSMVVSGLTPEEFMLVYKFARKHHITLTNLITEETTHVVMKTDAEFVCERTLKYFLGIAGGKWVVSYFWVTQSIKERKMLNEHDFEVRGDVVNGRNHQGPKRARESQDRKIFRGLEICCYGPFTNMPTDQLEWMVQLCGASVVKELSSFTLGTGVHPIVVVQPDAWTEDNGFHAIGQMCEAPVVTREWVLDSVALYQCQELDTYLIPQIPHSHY
Neurabin-2 (Homo sapiens), Q96SB3 F451A: the “effect of a mutation on the interaction” value was “increasing interaction”.

Regarding Neurabin-2 (Homo sapiens), Q96SB3 S248A, the “effect of a mutation on the interaction” value is on record as “increasing interaction”. The same measure for Neurabin-2 (Homo sapiens), Q96SB3 S212A: “decreasing interaction”; for Neurabin-2 (Homo sapiens), Q96SB3 S635A: “disrupting interaction”.
